In US11512128B2, “VEGF/DLL4 binding agents and uses thereof” (MEREO BIOPHARMA 5, INC., priority 2011, dated 2022):

Columns and labels:
[1] = Non-GLP toxicity study in cynomolgus monkeys; format: in vivo; conditions: after 15 weeks
Description: A non-GLP toxicity study in cynomolgus monkeys was initiated to evaluate and compare the toxicity profile of some of the bispecific antibodies. The animals were dosed with 0 mg/kg (control), 5 mg/kg (low dose), or 30 mg/kg (high dose) of anti-DLL4/anti-VEGF bispecific antibody (219R45-MB-21M18, 219R45-MB-21R83, or 219R45-MB-21R79) every 2 weeks via IV infusion. 3 males and 3 females were dosed in each group. After 15 weeks, mean body weights were lower in animals receiving the high dose of 219R45-MB-21R79 than in animals that received the high dose of either […] or 219R45-MB-21R83. In addition, mean serum albumin levels were lower in animals that received 219R45-MB-21R79 than in those that received either […] or 219R45-MB-21R83.

[2] = biological target: VEGF and DLL4 (Homo sapiens, UniProt P15692+Q9NR61); assay: Bispecific antibody ELISA; format: binding; parameters: purchased ATGEN, South Korea
Description: FIG. 7. Bispecific antibody ELISA. Bispecific antibodies 219R45-MB-21M18, 219R45-MB-21R79, 219R45-MB-21R75, and 219R45-MB-21R83 were diluted in blocking buffer (1× PBS, 0.1% gelatin, 0.1% Polysorbate-20, pH 7.4) containing 2 μg/ml biotin-DLL4-hFc. The antibodies were serially diluted 3-fold from 500 ng/ml to 0.008 ng/ml. The antibody samples were incubated for 2 hours in blocking buffer containing the biotin-DLL4-hFc. After incubation, the antibody samples were transferred to a VEGF-coated assay plate (100 ul/well) and incubated for 2 hours. Streptavidin-HRP was added to each well and incubated for 1 hr. TMB substrate was added to the wells with a 10 minute color development and the reaction was stopped with 2M sulfuric acid. Absorbance was read at 450-650 nm and the data analyzed using the 4-parameter fit within the Softmax Pro analysis program.
VEGF (ATGEN, South Korea) was coated onto Nunc maxisorb plates at 2 ug/ml (100 μl/well) and incubated overnight at 2-8° C. Bispecific antibodies 219R45-MB-21M18, 219R45-MB-21R79, 219R45-MB-21R75, and 219R45-MB-21R83 were diluted in blocking buffer (1× PBS, 0.1% gelatin, 0.1% Polysorbate-20, pH 7.4) containing 2 μg/ml biotin-DLL4-hFc. […] Absorbance was read at 450-650 nm and the data analyzed using the 4-parameter fit within the Softmax Pro analysis program (Molecular Devices, Sunnyvale, Calif.).

[3] = biological target: T1, human VEGF165 (Homo sapiens, UniProt P15692); assay: Biacore binding affinity (KD) to human VEGF; conditions: Biacore 2000, biotinylated human VEGF165 on streptavidin chip; read-out: KD hVEGF
T1 sequence (P15692 27-191 isoform P15692-4): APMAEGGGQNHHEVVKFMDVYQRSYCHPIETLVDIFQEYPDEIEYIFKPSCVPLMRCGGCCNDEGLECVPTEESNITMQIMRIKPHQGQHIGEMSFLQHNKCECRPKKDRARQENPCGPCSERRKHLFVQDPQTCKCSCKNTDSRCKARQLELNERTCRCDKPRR
Description: The KDs of parental antibodies anti-VEGF 219R45 (IgG format), anti-DLL4 21R79 (IgG format), anti-DLL4 21M18 (IgG format) and bispecific antibodies 219R45-MB-21M18 and 219R45-MB-21R79 were determined using a Biacore 2000 system from Biacore LifeSciences (GE Healthcare). Recombinant human DLL4-Fc or mouse DLL4-Fc proteins were immobilized on CM5 carboxyl chips using standard amine-based chemistry (NHS/EDC) and blocked with ethanolamine. Recombinant human VEGF165 or mouse VEGF165 were biotinylated and immobilized on streptavidin chips. The antibodies were serially diluted 2-fold from 100 nM to 0.78 nM in HBS-P (0.01M HEPES pH7.4, 0.15M NaCl, 0.005% v/v Polysorbate 20). For each antibody, all 8 dilutions were sequentially injected over a specific chip. Kinetic data were collected over time and were fit using the simultaneous global fit equation to yield affinity constants (KD values) for each bispecific antibody.

B1: 219R45-MB-21R79: anti-VEGF/anti-DLL4 monovalent/bispecific antibody, heavy chains SEQ ID NO:7 and 6, light chains SEQ ID NO:8 (antibody)
heavy 1: QVQLVQSGAEVKKPGASVKVSCKASGYTFTNYWMHWVRQAPGQGLEWMGDINPSNGRTSYKEKFKRRVTLSVDKSSSTAYMELSSLRSEDTAVYFCTIHYDDKYYPLMDYWGQGTLVTVSSASTKGPSVFPLAPCSRSTSESTAALGCLVKDYFPEPVTVSWNSGALTSGVHTFPAVLQSSGLYSLSSVVTVPSSNFGTQTYTCNVDHKPSNTKVDKTVERKCCVECPPCPAPPVAGPSVFLFPPKPKDTLMISRTPEVTCVVVDVSHEDPEVQFNWYVDGVEVHNAKTKPREEQFNSTFRVVSVLTVVHQDWLNGKEYKCKVSNKGLPAPIEKTISKTKGQPREPQVYTLPPSREKMTKNQVSLTCLVKGFYPSDIAVEWESNGQPENNYKTTPPMLKSDGSFFLYSKLTVDKSRWQQGNVFSCSVMHEALHNHYTQKSLSLSPGK
heavy 2: QVQLVQSGAEVKKPGASVKISCKASGYSFTAYYIHWVKQAPGQGLEWIGYIANYNRATNYNQKFKGRVTFTTDTSTSTAYMELRSLRSDDTAVYYCARDYDYDVGMDYWGQGTLVTVSSASTKGPSVFPLAPCSRSTSESTAALGCLVKDYFPEPVTVSWNSGALTSGVHTFPAVLQSSGLYSLSSVVTVPSSNFGTQTYTCNVDHKPSNTKVDKTVERKCCVECPPCPAPPVAGPSVFLFPPKPKDTLMISRTPEVTCVVVDVSHEDPEVQFNWYVDGVEVHNAKTKPREEQFNSTFRVVSVLTVVHQDWLNGKEYKCKVSNKGLPAPIEKTISKTKGQPREPQVYTLPPSREEMTKNQVSLTCLVEGFYPSDIAVEWESNGQPENNYKTTPPMLDSDGSFFLYSELTVDKSRWQQGNVFSCSVMHEALHNHYTQKSLSLSPGK
light: DIVMTQSPDSLAVSLGERATISCRASESVDNYGISFMKWFQQKPGQPPKLLIYAASNQGSGVPDRFSGSGSGTDFTLTISSLQAEDVAVYYCQQSKEVPWTFGGGTKVEIKRTVAAPSVIFPPSDEQLKSGTASVVCLLNNFYPREAKVQWKVDNALQSGNSQESVTEQDSKDSTYSLSSTLTLSKADYEKHKVYACEVTHQGLSSPVTKSFNRGEC
modifications: 21R79 Heavy chain without predicted signal sequence; Light chain without predicted signal sequence
mean serum albumin levels ([1]; every 2 weeks IV infusion): lower
mean body weights ([1]; high dose 30 mg/kg every 2 weeks IV infusion): lower
more potent than 219R45-MB-21M18 in bispecific ELISA [2]: about 7 fold

B2: 21M18: anti-DLL4 antibody, parental antibody (Hoey et al., 2009; U.S. Pat. No. 7,750,124) (antibody, V domains shown)
VH: QVQLVQSGAEVKKPGASVKISCKASGYSFTAYYIHWVKQAPGQGLEWIGYISSYNGATNYNQKFKGRVTFTTDTSTSTAYMELRSLRSDDTAVYYCARDYDYDVGMDYWGQGTLVTVSS
VL: DIVMTQSPDSLAVSLGERATISCRASESVDNYGISFMKWFQQKPGQPPKLLIYAASNQGSGVPDRFSGSGSGTDFTLTISSLQAEDVAVYYCQQSKEVPWTFGGGTKVEIK
Kd [3]: > 0.1 µM
